These results are taken from US20140274782A1, “AFFINITY REAGENTS AND METHODS FOR DETECTION, PURIFICATION, AND PROTEOMIC ANALYSIS OF METHYLATED PROTEINS” (The Board of Trustees of the Leland Stanford Junior …, priority 2013, published 2014).

First the molecules themselves.
B1: HNRNPH3 (protein, UniProt P31942 1-346, looked up)
Heterogeneous nuclear …: MDWVMKHNGPNDASDGTVRLRGLPFGCSKEEIVQFFQGLEIVPNGITLTMDYQGRSTGEAFVQFASKEIAENALGKHKERIGHRYIEIFRSSRSEIKGFYDPPRRLLGQRPGPYDRPIGGRGGYYGAGRGSMYDRMRRGGDGYDGGYGGFDDYGGYNNYGYGNDGFDDRMRDGRGMGGHGYGGAGDASSGFHGGHFVHMRGLPFRATENDIANFFSPLNPIRVHIDIGADGRATGEADVEFVTHEDAVAAMSKDKNNMQHRYIELFLNSTPGGGSGMGGSGMGGYGRDGMDNQGGYGSVGRMGMGNNYSGGYGTPDGLGGYGRGGGGSGGYYGQGGMSGGGWRGMY
B2: RRM1 (protein, UniProt P23921 1-792, looked up)
Ribonucleoside-diphosphate …: MHVIKRDGRQERVMFDKITSRIQKLCYGLNMDFVDPAQITMKVIQGLYSGVTTVELDTLAAETAATLTTKHPDYAILAARIAVSNLHKETKKVFSDVMEDLYNYINPHNGKHSPMVAKSTLDIVLANKDRLNSAIIYDRDFSYNYFGFKTLERSYLLKINGKVAERPQHMLMRVSVGIHKEDIDAAIETYNLLSERWFTHASPTLFNAGTNRPQLSSCFLLSMKDDSIEGIYDTLKQCALISKSAGGIGVAVSCIRATGSYIAGTNGNSNGLVPMLRVYNNTARYVDQGGNKRPGAFAIYLEPWHLDIFEFLDLKKNTGKEEQRARDLFFALWIPDLFMKRVETNQDWSLMCPNECPGLDEVWGEEFEKLYASYEKQGRVRKVVKAQQLWYAIIESQTETGTPYMLYKDSCNRKSNQQNLGTIKCSNLCTEIVEYTSKDEVAVCNLASLALNMYVTSEHTYDFKKLAEVTKVVVRNLNKIIDINYYPVPEACLSNKRHRPIGIGVQGLADAFILMRYPFESAEAQLLNKQIFETIYYGALEASCDLAKEQGPYETYEGSPVSKGILQYDMWNVTPTDLWDWKVLKEKIAKYGIRNSLLIAPMPTASTAQILGNNESIEPYTSNIYTRRVLSGEFQIVNPHLLKDLTERGLWHEEMKNQIIACNGSIQSIPEIPDDLKQLYKTVWEISQKTVLKMAAERGAFIDQSQSLNIHIAEPNYGKLTSMHFYGWKQGLKTGMYYLRTRPAANPIQFTLNKEKLKDKEKVSKEEEEKERNTAAMVCSLENRDECLMCGS
B3: SRP68 (protein, UniProt Q9UHB9 1-627, looked up)
Signal recognition particle …: MAAEKQVPGGGGGGGSGGGGGSGGGGSGGGRGAGGEENKENERPSAGSKANKEFGDSLSLEILQIIKESQQQHGLRHGDFQRYRGYCSRRQRRLRKTLNFKMGNRHKFTGKKVTEELLTDNRYLLLVLMDAERAWSYAMQLKQEANTEPRKRFHLLSRLRKAVKHAEELERLCESNRVDAKTKLEAQAYTAYLSGMLRFEHQEWKAAIEAFNKCKTIYEKLASAFTEEQAVLYNQRVEEISPNIRYCAYNIGDQSAINELMQMRLRSGGTEGLLAEKLEALITQTRAKQAATMSEVEWRGRTVPVKIDKVRIFLLGLADNEAAIVQAESEETKERLFESMLSECRDAIQVVREELKPDQKQRDYILEGEPGKVSNLQYLHSYLTYIKLSTAIKRNENMAKGLQRALLQQQPEDDSKRSPRPQDLIRLYDIILQNLVELLQLPGLEEDKAFQKEIGLKTLVFKAYRCFFIAQSYVLVKKWSEALVLYDRVLKYANEVNSDAGAFKNSLKDLPDVQELITQVRSEKCSLQAAAILDANDAHQTETSSSQVKDNKPLVERFETFCLDPSLVTKQANLVHFPPGFQPIPCKPLFFDLALNHVAFPPLEDKLEQKTKSGLTGYIKGIFGFRS
B4: PPP1R10 (protein, UniProt Q96QC0 1-940, looked up)
Serine/threonine-protein …: MGSGPIDPKELLKGLDSFLNRDGEVKSVDGISKIFSLMKEARKMVSRCTYLNILLQTRSPEILVKFIDVGGYKLLNNWLTYSKTTNNIPLLQQILLTLQHLPLTVDHLKQNNTAKLVKQLSKSSEDEELRKLASVLVSDWMAVIRSQSSTQPAEKDKKKRKDEGKSRTTLPERPLTEVKAETRAEEAPEKKREKPKSLRTTAPSHAKFRSTGLELETPSLVPVKKNASTVVVSDKYNLKPIPLKRQSNVAAPGDATPPAEKKYKPLNTTPNATKEIKVKIIPPQPMEGLGFLDALNSAPVPGIKIKKKKKVLSPTAAKPSPFEGKTSTEPSTAKPSSPEPAPPSEAMDADRPGTPVPPVEVPELMDTASLEPGALDAKPVESPGDPNQLTRKGRKRKSVTWPEEGKLREYFYFELDETERVNVNKIKDFGEAAKREILSDRHAFETARRLSHDNMEEKVPWVCPRPLVLPSPLVTPGSNSQERYIQAEREKGILQELFLNKESPHEPDPEPYEPIPPKLIPLDEECSMDETPYVETLEPGGSGGSPDGAGGSKLPPVLANLMGSMGAGKGPQGPGGGGINVQEILTSIMGSPNSHPSEELLKQPDYSDKIKQMLVPHGLLGPGPIANGFPPGGPGGPKGMQHFPPGPGGPMPGPHGGPGGPVGPRLLGPPPPPRGGDPFWDGPGDPMRGGPMRGGPGPGPGPYHRGRGGRGGNEPPPPPPPFRGARGGRSGGGPPNGRGGPGGGMVGGGGHRPHEGPGGGMGNSSGHRPHEGPGGGMGSGHRPHEGPGGSMGGGGGHRPHEGPGGGISGGSGHRPHEGPGGGMGAGGGHRPHEGPGGSMGGSGGHRPHEGPGHGGPHGHRPHDVPGHRGHDHRGPPPHEHRGHDGPGHGGGGHRGHDGGHSHGGDMSNRPVCRHFMMKGNCRYENNCAFYHPGVNGPPLP

One experiment addresses T1, G9a and GLP (Homo sapiens, UniProt Q96KQ7+Q9H9B1).
T1 sequence (Q96KQ7 2-1210 limits assumed): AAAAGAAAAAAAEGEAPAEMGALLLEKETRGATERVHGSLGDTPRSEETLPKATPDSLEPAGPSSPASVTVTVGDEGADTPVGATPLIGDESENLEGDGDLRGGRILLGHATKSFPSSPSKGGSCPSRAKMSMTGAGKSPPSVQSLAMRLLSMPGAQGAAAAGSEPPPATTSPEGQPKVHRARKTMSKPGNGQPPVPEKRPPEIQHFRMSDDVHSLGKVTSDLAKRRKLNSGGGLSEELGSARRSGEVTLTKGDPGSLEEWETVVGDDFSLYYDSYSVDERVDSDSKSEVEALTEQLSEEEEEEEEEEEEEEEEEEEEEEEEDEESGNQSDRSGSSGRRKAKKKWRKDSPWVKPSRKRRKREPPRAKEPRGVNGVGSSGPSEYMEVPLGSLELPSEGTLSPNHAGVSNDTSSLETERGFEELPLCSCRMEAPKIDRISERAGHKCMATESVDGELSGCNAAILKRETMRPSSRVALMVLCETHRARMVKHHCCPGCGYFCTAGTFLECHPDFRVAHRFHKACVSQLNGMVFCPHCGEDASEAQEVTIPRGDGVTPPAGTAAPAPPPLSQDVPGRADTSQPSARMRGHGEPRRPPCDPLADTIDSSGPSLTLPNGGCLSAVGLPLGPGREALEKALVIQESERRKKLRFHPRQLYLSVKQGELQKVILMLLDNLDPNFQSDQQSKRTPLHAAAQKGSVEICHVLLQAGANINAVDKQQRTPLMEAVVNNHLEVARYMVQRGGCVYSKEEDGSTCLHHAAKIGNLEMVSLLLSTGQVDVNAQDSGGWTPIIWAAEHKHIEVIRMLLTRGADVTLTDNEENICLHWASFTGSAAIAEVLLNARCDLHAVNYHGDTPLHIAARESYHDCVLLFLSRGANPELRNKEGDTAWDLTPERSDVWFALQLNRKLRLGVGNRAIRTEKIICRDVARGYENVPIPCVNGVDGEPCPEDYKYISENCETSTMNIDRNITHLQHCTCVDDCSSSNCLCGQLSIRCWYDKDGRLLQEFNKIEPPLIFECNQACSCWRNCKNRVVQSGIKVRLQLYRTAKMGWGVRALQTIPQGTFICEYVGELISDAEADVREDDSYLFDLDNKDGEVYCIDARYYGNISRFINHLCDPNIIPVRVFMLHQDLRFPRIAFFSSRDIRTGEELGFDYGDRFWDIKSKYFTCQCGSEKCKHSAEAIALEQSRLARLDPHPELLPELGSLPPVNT
T1 sequence (Q9H9B1 2-1298 limits assumed): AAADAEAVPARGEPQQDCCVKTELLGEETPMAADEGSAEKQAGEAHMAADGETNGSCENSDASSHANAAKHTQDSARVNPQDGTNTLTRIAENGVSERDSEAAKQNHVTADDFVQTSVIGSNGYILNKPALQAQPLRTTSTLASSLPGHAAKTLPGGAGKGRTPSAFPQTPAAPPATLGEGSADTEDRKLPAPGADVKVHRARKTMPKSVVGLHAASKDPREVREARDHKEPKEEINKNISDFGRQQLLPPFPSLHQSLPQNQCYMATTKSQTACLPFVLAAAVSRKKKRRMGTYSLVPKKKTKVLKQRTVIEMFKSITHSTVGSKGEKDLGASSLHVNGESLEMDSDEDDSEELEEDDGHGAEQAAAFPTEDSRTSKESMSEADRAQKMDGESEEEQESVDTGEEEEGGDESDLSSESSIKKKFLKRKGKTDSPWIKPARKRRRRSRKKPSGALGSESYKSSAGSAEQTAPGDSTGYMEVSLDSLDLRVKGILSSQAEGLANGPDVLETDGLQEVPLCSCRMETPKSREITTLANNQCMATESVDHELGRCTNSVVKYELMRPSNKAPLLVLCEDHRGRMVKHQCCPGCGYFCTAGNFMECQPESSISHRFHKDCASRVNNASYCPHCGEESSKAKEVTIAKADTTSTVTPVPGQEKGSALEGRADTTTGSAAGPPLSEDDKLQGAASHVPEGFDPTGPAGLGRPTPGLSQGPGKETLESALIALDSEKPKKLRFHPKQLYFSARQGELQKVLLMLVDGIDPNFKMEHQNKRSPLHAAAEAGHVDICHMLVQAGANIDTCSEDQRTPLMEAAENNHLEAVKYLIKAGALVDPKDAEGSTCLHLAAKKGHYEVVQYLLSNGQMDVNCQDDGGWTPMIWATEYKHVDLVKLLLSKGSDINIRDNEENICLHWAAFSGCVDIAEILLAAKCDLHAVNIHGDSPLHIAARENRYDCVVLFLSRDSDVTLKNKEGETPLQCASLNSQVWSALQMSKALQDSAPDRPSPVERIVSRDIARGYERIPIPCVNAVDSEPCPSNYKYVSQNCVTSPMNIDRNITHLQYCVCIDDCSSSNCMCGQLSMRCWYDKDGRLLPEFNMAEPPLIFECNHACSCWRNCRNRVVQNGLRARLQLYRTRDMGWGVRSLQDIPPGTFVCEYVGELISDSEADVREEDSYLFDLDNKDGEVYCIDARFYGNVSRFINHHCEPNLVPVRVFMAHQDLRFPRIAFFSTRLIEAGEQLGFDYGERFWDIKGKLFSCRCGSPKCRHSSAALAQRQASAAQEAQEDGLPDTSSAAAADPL
The experiment is described as follows: Triple SILAC pull-down after UNC0638 treatment of 293T cells, DMSO/UNC0638 ratio of protein captured by 3×MBT.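 Note: mass spectrometry (Q-Exactive) SILAC quantitation, DMSO/UNC0638 ratio computed after subtracting 3×MBTD355N mutant pull-down background, only proteins with at least twofold 3×MBT over mutant signal considered.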 Type of experiment: cell-based. Also on record: endogenous in cells; host or cells: HEK 293T. The following applies: SILAC ratio DMSO/UNC0638 of protein pulled down with 3xMBT; UNC0638 in heavy SILAC media.
With B1, the “Relative to UNC0638 UNC Heavy” value turned out to be 0.28 log base 2.

On to B2, for which the “Relative to UNC0638 UNC Heavy” value is recorded as 0.96 log base 2.

B3: the “Relative to UNC0638 UNC Heavy” value is recorded as −0.08 log base 2.

For the molecule B4, the “Relative to UNC0638 UNC Heavy” value is on record as 0.36 log base 2.

The experiment is the same for the next values; noted with them: SILAC ratio DMSO/UNC0638 of protein pulled down with 3xMBT; UNC0638 in light SILAC media.
With B1, the “Relative to UNC0638 UNC Light” value came out at 0.39 log base 2.

For the molecule B2, the “Relative to UNC0638 UNC Light” value is −0.22 log base 2.

As for B3, the “Relative to UNC0638 UNC Light” value was 0.76 log base 2.

Take B4: the “Relative to UNC0638 UNC Light” value is on record as 0.37 log base 2.

The experiment is the same for the next values; noted with them: average of UNC Light and UNC Heavy experiments.
As for B1, the “Relative to UNC0638 Average” value was 0.34 log base 2.

On to B2, for which the “Relative to UNC0638 Average” value is 0.37 log base 2.

Take B3: the “Relative to UNC0638 Average” value was determined as 0.34 log base 2.

Turning to B4, the “Relative to UNC0638 Average” value was 0.36 log base 2.

A further experiment relates to 3×MBT domain of L3MBTL1. The experiment in a line: Triple SILAC pull-down, 3xMBT/3xMBTD355N ratio (cytoplasmic, nuclear and chromatin fractions of 293T cells).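 Note: proteins quantified with MaxQuant, requiring at least two unique peptides and quantification in both label directions, normalized to the mean of proteins from a digested loading control.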 The conditions noted are these: SILAC ratio, pull-down 3xMBT vs 3xMBTD355N; experiment with UNC0638 in heavy SILAC media. Type of experiment: binding, human.
With B1, the “3xMBT/D355N UNC Heavy” value is given as 1.94 log base 2.

In the case of B2, the “3xMBT/D355N UNC Heavy” value was found to be 1.23 log base 2.

In the case of B3, the “3xMBT/D355N UNC Heavy” value turned out to be 2.41 log base 2.

Regarding B4, the “3xMBT/D355N UNC Heavy” value was found to be 4.73 log base 2.

The same experiment, now with this note: SILAC ratio, pull-down 3xMBT vs 3xMBTD355N; experiment with UNC0638 in light SILAC media.
For the molecule B1, the “3xMBT/D355N UNC Light” value stood at 2.57 log base 2.

B2: the “3xMBT/D355N UNC Light” value is listed as 0.94 log base 2.

For the molecule B3, the “3xMBT/D355N UNC Light” value was 3.28 log base 2.

As to B4, the “3xMBT/D355N UNC Light” value is recorded as 2.57 log base 2.
